Results as given in the supplement of paper PMC11865577.

Experiments:
Experiment in all cases: pull-down binding Z-score (relative to library population); higher = stronger binding
Details in all cases: RNA library: Library-2
[1] = tested on: TO-3-N3 (biotin conjugate)
Summary of the method: (§1)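 Binding is given as a Z-score against the library mean and standard deviation, calculated after removing the beads-only signal and averaging barcoded replicate probes without their highest and lowest values. Cy5- or Cy3-end-labelled RNA library (1 μg) was heat-folded in phosphate/NaCl/KCl buffer and incubated 60 min at 25 °C with streptavidin beads bearing 100 pmol of biotin-conjugated small molecule. After three washes, RNA eluted in hot SDS was hybridised to a DNA barcode microarray for 20 h at 55.5 °C.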

[2] = tested on: TO-N3-2 (biotin conjugate)
Summary of the method: as §1

TO-N3 (biotin conjugate) = tested on: TO-N3 (biotin conjugate)
Summary of the method: as §1

[3] = tested on: TO-3-N3-2 (biotin conjugate)
Summary of the method: as §1

Row | Sequence | pull-down binding Z-score [1] | pull-down binding Z-score [2] | pull-down binding Z-score (TO-N3 (biotin conjugate)) | pull-down binding Z-score [3]
1 | UCUUUAAGGAAGGAAGUUCUGUUGAAUUAAAACACUUCUUCUUUGCUCAGGA [DMSMaPseq_invitro_SARS-CoV-2_Motif_265] | -0.904 | -0.953 | -1.23 | -0.179
2 | UCUUUAUUUGACAUGAGUAAAUUUCCCCUUAAAUUAAGGGGUACUGCUGUUAUGUCUUUAAAAGA [SHAPE_invitro_SARS-CoV-2_Motif_387] | -0.896 | -0.575 | -0.894 | 0.0957
3 | UCUUUCAUGGGA [DMSMaPseq_invitro_SARS-CoV-2_Motif_300] | 0.66 | -0.26 | 0.363 | 0.0379
4 | UGAACCACAAAUCA [SHAPE_invitro_SARS-CoV-2_Motif_451] | -0.745 | -0.906 | -1.04 | -0.565
5 | UGAAGUAUUUUGUGAAAAUAGGACCUGAGCGCACCUGUUGUCUAUGUGAUAGACGUGCCACAUGCUUUUCCACUGCUUCA [SHAPE_invitro_SARS-CoV-2_Motif_342] | -0.573 | 0.0857 | -0.477 | -0.335
6 | UGAAUUAGACUCAUUCA [DMSMaPseq_invitro_SARS-CoV-2_Motif_447] | -0.55 | -0.825 | -0.643 | -0.45
7 | UGACAUGACUCUUGAGGAAAUGUCA [IAV_invivo_NS1_NEP_8_Motif_7+IAV_invivo_NS1_NEP_8_Motif_7] | -0.475 | -1.21 | -0.87 | -0.773
8 | UGACAUUACACCAUGUUCUUUUGGUGGUGUCA | -0.87 | -1.47 | -1.29 | -0.423
9 | UGACCAGUCUUCUUACAUCGUUGAUAGUGUUACAGUGAAGAAUGGUUCCAUCCAUCUUUACUUUGAUAAAGCUGGUCA | -0.506 | -0.863 | -0.675 | -0.33
10 | UGACGAUGCUGUUGUGUGUUUCAAUAGCACUUAUGCAUCUCA [SHAPE_invitro_SARS-CoV-2_Motif_289] | 1.24 | -0.71 | 1.01 | -0.0833
11 | UGAGUACUGUAGGCACGGCACUUGUGAAAGAUCAGAAGCUGGUGUUUGUGUAUCUACUAGUGGUAGAUGGGUACUUA [DMSMaPseq_invitro_SARS-CoV-2_Multi_29_ComplexLevel_1] | -0.254 | 0.628 | 0.0497 | -0.0976
12 | UGAGUGUGACAUACCCAUUGGUGCAGGUAUAUGCGCUAGUUAUCAGACUCA | 0.734 | 0.541 | 0.865 | 0.422
13 | UGAUAAAUUCA [SHAPE_invivo_SARS-CoV-2_Motif_325] | -0.376 | -1.19 | -0.712 | -0.375
14 | UGAUAGUCAACAAACUGUUGGUCAACAAGACGGCAGUGAGGACAAUCA | 0.68 | -0.167 | 0.595 | 0.241
15 | UGAUGCAGCCAUGCAACGUAAGUUGGAAAAGAUGGCUGAUCA | -1.03 | -0.974 | -1.16 | -0.36
16 | UGAUGCGUAUUAUGACAUGGUUGGAUAUGGUUGAUACUAGUUUGUCUGGUUUUAAGCUAAAAGACUGUGUUAUGUAUGCAUCA | -0.867 | -0.569 | -0.861 | -0.285
